Source: the supplement of paper PMC10201428
± gives the standard deviation of the averaged measurements.

How the values were obtained:
[1] = test system: VchCAST RNA-guided transposition machinery (E. coli BL21(DE3) host, lacZ target); assay: relative integration efficiency (T-RL orientation) vs wild-type transposon end (log2 (normalized fold change)); transposon end mutated: right end (5 bp flank + 75 bp right end); higher = more efficient transposition
How it was run: (§1)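 Co-transformation of E. coli BL21(DE3) combined a pUC57 mini-transposon donor, holding barcoded pools of 1549 left-end or 1849 right-end variants, with a T7-driven plasmid encoding a CRISPR array, tniQ-cas8-cas7-cas6 and tnsA-tnsB-tnsC. After plating with 0.1 mM IPTG at 37°C for 18 h, input plasmids and genomic integration junctions were PCR-amplified and Illumina-sequenced across two biological output replicates, with four reference barcodes. Relative integration efficiency is the normalised, log-transformed output/input barcode fold change.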

[2] = test system: VchCAST RNA-guided transposition machinery (E. coli BL21(DE3) host, lacZ target); assay: relative integration efficiency (T-LR orientation) vs wild-type transposon end (log2 (normalized fold change)); transposon end mutated: right end (5 bp flank + 75 bp right end); higher = more efficient transposition
How it was run: as §1

Sequence | relative integration efficiency (log2) [1] | relative integration efficiency (log2) [2]
ACATTTGTTGATACTACCATATAATGATAATAACACCCATAAAATGATAATTATCACACCCAATTTAACTATAACGCTCTGATCATAGTCAGACCAACATTGCTACGACCCGTATTCGCACCGACAC | -1.45 ± 0.32 | 1.9 ± 0.11
ACATTTGTTGATACTACCATTTAATGATAATAACACCCATAAAATGATAATTATCACACCCAATTTAACTATAACGCTCTGATCATAGTCAGACCAACATTGCTACGACCCGTATTCGCACCGACAC | -1.01 ± 0.18 | 1.8 ± 0.17
ACATTTGTTGATACTTCCATAAAATGATAATTACACCCATAAATTGATAATTATCACACCCATAAATTGATATTGCCTCTGATCATAGTCAGACCAACATTGCTACGACCCGTATTCGCACCGACAC | -0.637 ± 0.052 | -0.525 ± 0.042
ACATTTGTTGATACTTGGATAAAATGATAATTACACCCATAAATTGATAATTATCACACCCATAAATTGATATTGCCTCTGATCATAGTCAGACCAACATTGCTACGACCCGTATTCGCACCGACAC | -0.966 ± 0.23 | -1.07 ± 0.2
ACATTTGTTGATAGAACCATAAAATGATAATTAGACCCATAAATTGATAATTATCAGACCCATAAATTGATATTGCCTCTGATCATAGTCAGACCAACATTGCTACGACCCGTATTCGCACCGACAC | -1.64 ± 0.2 | -0.628 ± 0.11
ACATTTGTTGATAGAACCATATAATGATAATAACACCCATAAAATGATAATTATCACACCCAATTTAACTATAACGCTCTGATCATAGTCAGACCAACATTGCTACGACCCGTATTCGCACCGACAC | -1.72 ± 0.33 | 1.28 ± 0.069
ACATTTGTTGATAGAACCATTTAATGATAATAACACCCATAAAATGATAATTATCACACCCAATTTAACTATAACGCTCTGATCATAGTCAGACCAACATTGCTACGACCCGTATTCGCACCGACAC | -2.12 ± 0.42 | 0.598 ± 0.17
ACATTTGTTGATAGTACCATAAAATGATAATTACACCCATAAATTGATAATTATCACACCCATAAATTGATATTGCCTCTGATCATAGTCAGACCAACATTGCTACGACCCGTATTCGCACCGACAC | -0.367 ± 0.064 | -1.23 ± 0.17
ACATTTGTTGATAGTTGCATAAAATGATAATTACACCCATAAATTGATAATTATCACACCCATAAATTGATATTGCCTCTGATCATAGTCAGACCAACATTGCTACGACCCGTATTCGCACCGACAC | -1.07 ± 0.13 | -1.37 ± 0.15
ACATTTGTTGATAGTTGGTATTTTACTATTAATCACCCATAAATTGATAATTATCAGTGGGTATTTAACTATAACGCTCTGATCATAGTCAGACCAACATTGCTACGACCCGTATTCGCACCGACAC | -5.71 ± 0.79 | -4.49 ± 1.4
ACATTTGTTGATAGTTGGTATTTTACTATTAATGTGGGTATTTAACTATTAATTCACACCCATAAATTGATATTGCCTCTGATCATAGTCAGACCAACATTGCTACGACCCGTATTCGCACCGACAC | -6.222 ± 0.043 | -3.485 ± 0.034
ACATTTGTTGATAGTTGGTATTTTACTATTAATGTGGGTATTTAACTATTAATTCAGTGGGTATTTAACTATAACGCTCTGATCATAGTCAGACCAACATTGCTACGACCCGTATTCGCACCGACAC | -6.63 ± 0.31 | < -10
ACATTTGTTGATATAATTATCATTTTATGGTTGCAACCATAAAATGATAATTATCACAACCATAAAATGATAATTACTCTGATCATAGTCAGACCAACATTGCTACGACCCGTATTCGCACCGACAC | -3.54 ± 0.15 | -4.32 ± 2.7
ACATTTGTTGATATAATTATCATTTTATGGTTGCAACCATAAAATGATAATTATGATAATTATCATTTTATGGTTGCTCTGATCATAGTCAGACCAACATTGCTACGACCCGTATTCGCACCGACAC | -2.97 ± 0.69 | -4.33 ± 0.53
ACATTTGTTGATATAATTATCATTTTATGGTTGTAATTATCATTTTATGGTTGTCATAATTATCATTTTATGGTTGCTCTGATCATAGTCAGACCAACATTGCTACGACCCGTATTCGCACCGACAC | -6.26 ± 0.22 | -6.39 ± 2.5
ACATTTGTTGATATCAACCATAAAATGATAATTACACCCATAAATTGATAATTATCACACCCATAAATTGATATTGCCTCTGATCATAGTCAGACCAACATTGCTACGACCCGTATTCGCACCGACA | -0.0259 ± 0.16 | -1.376 ± 0.0096
ACATTTGTTGATATGCAACCATAAAATGATAATTACACCCATAAATTGATAATTATCACACCCATAAATTGATATTGCCTCTGATCATAGTCAGACCAACATTGCTACGACCCGTATTCGCACCGAC | -6.537 ± 0.019 | -7.72 ± 1.2
ACATTTGTTGATATGTTCAACCATAAAATGATAATTACACCCATAAATTGATAATTATCACACCCATAAATTGATATTGCCTCTGATCATAGTCAGACCAACATTGCTACGACCCGTATTCGCACCG | -6.34 ± 0.1 | -7.23 ± 1.7
ACATTTGTTGATATGTTGACAACCATAAAATGATAATTACACCCATAAATTGATAATTATCACACCCATAAATTGATATTGCCTCTGATCATAGTCAGACCAACATTGCTACGACCCGTATTCGCAC | -6.69 ± 0.15 | -5.78 ± 1.9
ACATTTGTTGATATGTTGATACAACCATAAAATGATAATTACACCCATAAATTGATAATTATCACACCCATAAATTGATATTGCCTCTGATCATAGTCAGACCAACATTGCTACGACCCGTATTCGC | -0.0755 ± 0.058 | 0.26 ± 0.15
ACATTTGTTGATATGTTGATCAACCATAAAATGATAATTACACCCATAAATTGATAATTATCACACCCATAAATTGATATTGCCTCTGATCATAGTCAGACCAACATTGCTACGACCCGTATTCGCA | -7.04 ± 0.42 | -3.71 ± 0.28
ACATTTGTTGATCAAACCATAAAATGATAATTACACCCATAAATTGATAATTATCACACCCATAAATTGATATTGCCTCTGATCATAGTCAGACCAACATTGCTACGACCCGTATTCGCACCGACAC | -0.137 ± 0.021 | -0.874 ± 0.45
ACATTTGTTGATCAACCATAAAATGATAATTACACCCATAAATTGATAATTATCACACCCATAAATTGATATTGCCTCTGATCATAGTCAGACCAACATTGCTACGACCCGTATTCGCACCGACACT | -8.26 ± 0.75 | -4.42 ± 0.092
ACATTTGTTGATCACCCCATAAAATGATAATTACACCCATAAATTGATAATTATCACACCCATAAATTGATATTGCCTCTGATCATAGTCAGACCAACATTGCTACGACCCGTATTCGCACCGACAC | -0.839 ± 0.08 | -1.51 ± 0.22
ACATTTGTTGATCCAACCATAAAATGATAATTACACCCATAAATGGATAATTATCACACCCAATTTAACTATAACGCTCTGATCATAGTCAGACCAACATTGCTACGACCCGTATTCGCACCGACAC | -1.51 ± 0.15 | 1.15 ± 0.043
